Assay results from patent US20090098103A1.

Tests used:
Test in all cases: cell-based or functional assay
[1] = molecular target: FVIIa variant CB735 K341D (human) (UniProt P08709)
[2] = molecular target: FVIIa variant CB614 D196W/K197L (human) (UniProt P08709)
[3] = molecular target: FVIIa variant CB569 K341R (human) (UniProt P08709)
[4] = molecular target: FVIIa variant CB697 R290N (human) (UniProt P08709)
[5] = molecular target: FVIIa variant CB566 R290D (human) (UniProt P08709)
[6] = molecular target: FVIIa variant CB688 K197E/K199E (human) (UniProt P08709)
[7] = molecular target: FVIIa variant CB563 K199E (human) (UniProt P08709)
[8] = molecular target: FVIIa variant CB580 D196K/R290E (human) (UniProt P08709)
[9] = molecular target: FVIIa variant CB557 K197D (human) (UniProt P08709)
[10] = molecular target: FVIIa variant CB615 D196F/K197E (human) (UniProt P08709)
[11] = molecular target: FVIIa variant CB602 D196W (human) (UniProt P08709)
[12] = molecular target: FVIIa variant CB579 D196R/R290E (human) (UniProt P08709)
[13] = molecular target: FVIIa variant CB597 K197F (human) (UniProt P08709)
[14] = molecular target: FVIIa variant CB733 K341N (human) (UniProt P08709)
[15] = molecular target: FVIIa variant CB554 D196K (human) (UniProt P08709)
[16] = molecular target: FVIIa variant CB567 R290E (human) (UniProt P08709)
[17] = molecular target: FVIIa variant CB556 D196A (human) (UniProt P08709)
[18] = molecular target: FVIIa variant CB617 D196V/K197E (human) (UniProt P08709)
[19] = molecular target: FVIIa variant CB581 D196R/R290D (human) (UniProt P08709)
[20] = molecular target: FVIIa variant CB561 K197Y (human) (UniProt P08709)
[21] = molecular target: FVIIa variant CB612 D196F/K197L (human) (UniProt P08709)
[22] = molecular target: FVIIa variant CB586 D196R/K197E/K199E (human) (UniProt P08709)
[23] = molecular target: FVIIa variant CB693 K197E/K199E/G237V/M298Q/K341Q (human) (UniProt P08709)
[24] = molecular target: FVIIa variant CB700 R290M (human) (UniProt P08709)
[25] = molecular target: FVIIa variant CB595 K197I (human) (UniProt P08709)
[26] = molecular target: FVIIa variant CB603 D196L (human) (UniProt P08709)
[27] = molecular target: FVIIa variant CB560 K197L (human) (UniProt P08709)
[28] = molecular target: FVIIa variant CB598 K197W (human) (UniProt P08709)
[29] = molecular target: FVIIa variant CB605 G237W (human) (UniProt P08709)
[30] = molecular target: FVIIa variant CB555 D196R (human) (UniProt P08709)
[31] = molecular target: FVIIa variant CB691 K197E/K199E/K341Q (human) (UniProt P08709)
[32] = molecular target: FVIIa variant CB694 K199E/K341Q (human) (UniProt P08709)
[33] = molecular target: FVIIa variant CB696 G237V/M298Q/K341Q (human) (UniProt P08709)
[34] = molecular target: FVIIa variant CB609 K341Q (human) (UniProt P08709)
[35] = molecular target: FVIIa variant CB593 V158D/E296V/M298Q (human) (UniProt P08709)
[36] = molecular target: FVIIa variant CB606 G237T (human) (UniProt P08709)
[37] = molecular target: FVIIa variant CB670 G237V/K341Q (human) (UniProt P08709)
[38] = molecular target: FVIIa variant CB592 M298Q (human) (UniProt P08709)

## Human Recombinant TFPI (R&D Systems) (from UniProt P10646 29-282)
[1]
  TFPI fold resistance (fold vs wild-type FVIIa): 148
[2]
  TFPI fold resistance (fold vs wild-type FVIIa): < 0.3
[3]
  IC50 of TFPI inhibition of FVIIa/TF: 300 nM
  TFPI fold resistance (fold vs wild-type FVIIa): 4.1
  pIC50 of TFPI inhibition of FVIIa/TF: 6.5
[4]
  TFPI fold resistance (fold vs wild-type FVIIa): 1.5
[5]
  IC50 of TFPI inhibition of FVIIa/TF: 240 nM
  TFPI fold resistance (fold vs wild-type FVIIa): 3.3
  pIC50 of TFPI inhibition of FVIIa/TF: 6.6
[6]
  TFPI fold resistance (fold vs wild-type FVIIa): 2.1
[7]
  IC50 of TFPI inhibition of FVIIa/TF: 33 nM
  TFPI fold resistance (fold vs wild-type FVIIa): 1.3
  pIC50 of TFPI inhibition of FVIIa/TF: 7.5
[8]
  IC50 of TFPI inhibition of FVIIa/TF: 52 nM
  TFPI fold resistance (fold vs wild-type FVIIa): 0.7
  pIC50 of TFPI inhibition of FVIIa/TF: 7.3
[9]
  IC50 of TFPI inhibition of FVIIa/TF: 220 nM
  TFPI fold resistance (fold vs wild-type FVIIa): 3
  pIC50 of TFPI inhibition of FVIIa/TF: 6.7
[10]
  TFPI fold resistance (fold vs wild-type FVIIa): < 0.3
[11]
  TFPI fold resistance (fold vs wild-type FVIIa): < 0.3
[12]
  IC50 of TFPI inhibition of FVIIa/TF: 28 nM
  TFPI fold resistance (fold vs wild-type FVIIa): 0.4
  pIC50 of TFPI inhibition of FVIIa/TF: 7.6
[13]
  TFPI fold resistance (fold vs wild-type FVIIa): < 0.3
[14]
  TFPI fold resistance (fold vs wild-type FVIIa): 10.7
[15]
  IC50 of TFPI inhibition of FVIIa/TF: 45 nM
  TFPI fold resistance (fold vs wild-type FVIIa): 0.6
  pIC50 of TFPI inhibition of FVIIa/TF: 7.4
[16]
  IC50 of TFPI inhibition of FVIIa/TF: 440 nM
  TFPI fold resistance (fold vs wild-type FVIIa): 6.1
  pIC50 of TFPI inhibition of FVIIa/TF: 6.4
[17]
  IC50 of TFPI inhibition of FVIIa/TF: 5 nM
  TFPI fold resistance (fold vs wild-type FVIIa): < 0.3
  pIC50 of TFPI inhibition of FVIIa/TF: 8.3
[18]
  TFPI fold resistance (fold vs wild-type FVIIa): < 0.3
[19]
  IC50 of TFPI inhibition of FVIIa/TF: 32 nM
  TFPI fold resistance (fold vs wild-type FVIIa): 0.4
  pIC50 of TFPI inhibition of FVIIa/TF: 7.5
[20]
  IC50 of TFPI inhibition of FVIIa/TF: 110 nM
  TFPI fold resistance (fold vs wild-type FVIIa): 1.5
  pIC50 of TFPI inhibition of FVIIa/TF: 7
[21]
  TFPI fold resistance (fold vs wild-type FVIIa): < 0.3
[22]
  IC50 of TFPI inhibition of FVIIa/TF: 13 nM
  TFPI fold resistance (fold vs wild-type FVIIa): < 0.3
  pIC50 of TFPI inhibition of FVIIa/TF: 7.9
[23]
  TFPI fold resistance (fold vs wild-type FVIIa): 22.1
[24]
  TFPI fold resistance (fold vs wild-type FVIIa): 1
[25]
  TFPI fold resistance (fold vs wild-type FVIIa): 0.8
[26]
  TFPI fold resistance (fold vs wild-type FVIIa): < 0.3
[27]
  IC50 of TFPI inhibition of FVIIa/TF: 1100 nM
  TFPI fold resistance (fold vs wild-type FVIIa): 16
  pIC50 of TFPI inhibition of FVIIa/TF: 5.9
[28]
  TFPI fold resistance (fold vs wild-type FVIIa): < 0.3
[29]
  TFPI fold resistance (fold vs wild-type FVIIa): < 0.3
[30]
  IC50 of TFPI inhibition of FVIIa/TF: 37 nM
  TFPI fold resistance (fold vs wild-type FVIIa): 0.5
  pIC50 of TFPI inhibition of FVIIa/TF: 7.4
[31]
  TFPI fold resistance (fold vs wild-type FVIIa): 34.3
[32]
  TFPI fold resistance (fold vs wild-type FVIIa): 19.1
[33]
  TFPI fold resistance (fold vs wild-type FVIIa): 3.2
[34]
  TFPI fold resistance (fold vs wild-type FVIIa): 12.2
[35]
  IC50 of TFPI inhibition of FVIIa/TF: 41 nM
  TFPI fold resistance (fold vs wild-type FVIIa): 0.8
  pIC50 of TFPI inhibition of FVIIa/TF: 7.4
[36]
  TFPI fold resistance (fold vs wild-type FVIIa): 0.3
[37]
  TFPI fold resistance (fold vs wild-type FVIIa): 14.1
[38]
  IC50 of TFPI inhibition of FVIIa/TF: 35 nM
  TFPI fold resistance (fold vs wild-type FVIIa): 0.5
  pIC50 of TFPI inhibition of FVIIa/TF: 7.5
